Data: article PMC10540216, “Activity Guided Azide-methyllysine Photo-trapping for Substrate Profiling of Lysine Demethylases” (Journal of the American Chemical Society, 2023)

B1: SYIM_HUMAN (protein, UniProt Q9NSE4 49-1012, looked up)
Isoleucine--tRNA ligase, …: SNHQPNSNSGRYRDTVLLPQTSFPMKLLGRQQPDTELEIQQKCGFSELYSWQRERKVKTEFCLHDGPPYANGDPHVGHALNKILKDIANRFHMMNGSKIHFVPGWDCHGLPIEIKVLSELGREAQNLSAMEIRKKARSFAKAAIEKQKSAFIRWGIMADWNNCYYTFDGKYEAKQLRTFYQMYDKGLVYRSYKPVFWSPSSRTALAEAELEYNPEHVSRSIYVKFPLLKPSPKLASLIDGSSPVSILVWTTQPWTIPANEAVCYMPESKYAVVKCSKSGDLYVLAADKVASVASTLETTFETISTLSGVDLENGTCSHPLIPDKASPLLPANHVTMAKGTGLVHTAPAHGMEDYGVASQHNLPMDCLVDEDGVFTDVAGPELQNKAVLEEGTDVVIKMLQTAKNLLKEEKLVHSYPYDWRTKKPVVIRASKQWFINITDIKTAAKELLKKVKFIPGSALNGMVEMMDRRPYWCISRQRVWGVPIPVFHHKTKDEYLINSQTTEHIVKLVEQHGSDIWWTLPPEQLLPKEVLSEVGGPDALEYVPGQDILDIWFDSGTSWSYVLPGPDQRADLYLEGKDQLGGWFQSSLLTSVAARKRAPYKTVIVHGFTLGEKGEKMSKSLGNVIHPDVVVNGGQDQSKEPPYGADVLRWWVADSNVFTEVAIGPSVLNAARDDISKLRNTLRFLLGNVADFNPETDSIPVNDMYVIDQYMLHLLQDLANKITELYKQYDFGKVVRLLRTFYTRELSNFYFSIIKDRLYCEKENDPKRRSCQTALVEILDVIVRSFAPILPHLAEEVFQHIPYIKEPKSVFRTGWISTSSIWKKPGLEEAVESACAMRDSFLGSIPGKNAAEYKVITVIEPGLLFEIIEMLQSEETSSTSQLNELMMASESTLLAQEPREMTADVIELKGKFLINLEGGDIREESSYKVIVMPTTKEKCPRCWKYTAESSDTLCPRCAEVVSGK
B2: HNRPM_HUMAN (protein, UniProt P52272 2-730, looked up)
Heterogeneous nuclear …: AAGVEAAAEVAATEIKMEEESGAPGVPSGNGAPGPKGEGERPAQNEKRKEKNIKRGGNRFEPYANPTKRYRAFITNIPFDVKWQSLKDLVKEKVGEVTYVELLMDAEGKSRGCAVVEFKMEESMKKAAEVLNKHSLSGRPLKVKEDPDGEHARRAMQKVMATTGGMGMGPGGPGMITIPPSILNNPNIPNEIIHALQAGRLGSTVFVANLDYKVGWKKLKEVFSMAGVVVRADILEDKDGKSRGIGTVTFEQSIEAVQAISMFNGQLLFDRPMHVKMDERALPKGDFFPPERPQQLPHGLGGIGMGLGPGGQPIDANHLNKGIGMGNIGPAGMGMEGIGFGINKMGGMEGPFGGGMENMGRFGSGMNMGRINEILSNALKRGEIIAKQGGGGGGGSVPGIERMGPGIDRLGGAGMERMGAGLGHGMDRVGSEIERMGLVMDRMGSVERMGSGIERMGPLGLDHMASSIERMGQTMERIGSGVERMGAGMGFGLERMAAPIDRVGQTIERMGSGVERMGPAIERMGLSMERMVPAGMGAGLERMGPVMDRMATGLERMGANNLERMGLERMGANSLERMGLERMGANSLERMGPAMGPALGAGIERMGLAMGGGGGASFDRAIEMERGNFGGSFAGSFGGAGGHAPGVARKACQIFVRNLPFDFTWKMLKDKFNECGHVLYADIKMENGKSKGCGVVKFESPEVAERACRMMNGMKLSGREIDVRIDRNA
B3: C1TM_HUMAN (protein, UniProt Q6UB35 32-978, looked up)
Monofunctional …: SSGGGGGGGGGREGLLGQRRPQDGQARSSCSPGGRTPAARDSIVREVIQNSKEVLSLLQEKNPAFKPVLAIIQAGDDNLMQEINQNLAEEAGLNITHICLPPDSSEAEIIDEILKINEDTRVHGLALQISENLFSNKVLNALKPEKDVDGVTDINLGKLVRGDAHECFVSPVAKAVIELLEKSGVNLDGKKILVVGAHGSLEAALQCLFQRKGSMTMSIQWKTRQLQSKLHEADIVVLGSPKPEEIPLTWIQPGTTVLNCSHDFLSGKVGCGSPRIHFGGLIEEDDVILLAAALRIQNMVSSGRRWLREQQHRRWRLHCLKLQPLSPVPSDIEISRGQTPKAVDVLAKEIGLLADEIEIYGKSKAKVRLSVLERLKDQADGKYVLVAGITPTPLGEGKSTVTIGLVQALTAHLNVNSFACLRQPSQGPTFGVKGGAAGGGYAQVIPMEEFNLHLTGDIHAITAANNLLAAAIDTRILHENTQTDKALYNRLVPLVNGVREFSEIQLARLKKLGINKTDPSTLTEEEVSKFARLDIDPSTITWQRVLDTNDRFLRKITIGQGNTEKGHYRQAQFDIAVASEIMAVLALTDSLADMKARLGRMVVASDKSGQPVTADDLGVTGALTVLMKDAIKPNLMQTLEGTPVFVHAGPFANIAHGNSSVLADKIALKLVGEEGFVVTEAGFGADIGMEKFFNIKCRASGLVPNVVVLVATVRALKMHGGGPSVTAGVPLKKEYTEENIQLVADGCCNLQKQIQITQLFGVPVVVALNVFKTDTRAEIDLVCELAKRAGAFDAVPCYHWSVGGKGSVDLARAVREAASKRSRFQFLYDVQVPIVDKIRTIAQAVYGAKDIELSPEAQAKIDRYTQQGFGNLPICMAKTHLSLSHQPDKKGVPRDFILPISDVRASIGAGFIYPLVGTMSTMPGLPTRPCFYDIDLDTETEQVKGLF
B4: P5CS_HUMAN (protein, UniProt P54886 1-795, looked up)
Delta-1-pyrroline-5-carboxylat …: MLSQVYRCGFQPFNQHLLPWVKCTTVFRSHCIQPSVIRHVRSWSNIPFITVPLSRTHGKSFAHRSELKHAKRIVVKLGSAVVTRGDECGLALGRLASIVEQVSVLQNQGREMMLVTSGAVAFGKQRLRHEILLSQSVRQALHSGQNQLKEMAIPVLEARACAAAGQSGLMALYEAMFTQYSICAAQILVTNLDFHDEQKRRNLNGTLHELLRMNIVPIVNTNDAVVPPAEPNSDLQGVNVISVKDNDSLAARLAVEMKTDLLIVLSDVEGLFDSPPGSDDAKLIDIFYPGDQQSVTFGTKSRVGMGGMEAKVKAALWALQGGTSVVIANGTHPKVSGHVITDIVEGKKVGTFFSEVKPAGPTVEQQGEMARSGGRMLATLEPEQRAEIIHHLADLLTDQRDEILLANKKDLEEAEGRLAAPLLKRLSLSTSKLNSLAIGLRQIAASSQDSVGRVLRRTRIAKNLELEQVTVPIGVLLVIFESRPDCLPQVAALAIASGNGLLLKGGKEAAHSNRILHLLTQEALSIHGVKEAVQLVNTREEVEDLCRLDKMIDLIIPRGSSQLVRDIQKAAKGIPVMGHSEGICHMYVDSEASVDKVTRLVRDSKCEYPAACNALETLLIHRDLLRTPLFDQIIDMLRVEQVKIHAGPKFASYLTFSPSEVKSLRTEYGDLELCIEVVDNVQDAIDHIHKYGSSHTDVIVTEDENTAEFFLQHVDSACVFWNASTRFSDGYRFGLGAEVGISTSRIHARGPVGLEGLLTTKWLLRGKDHVVSDFSEHGSLKYLHENLPIPQRNTN
B5: C1TC_HUMAN (protein, UniProt P11586 1-935, looked up)
C-1-tetrahydrofolate …: MAPAEILNGKEISAQIRARLKNQVTQLKEQVPGFTPRLAILQVGNRDDSNLYINVKLKAAEEIGIKATHIKLPRTTTESEVMKYITSLNEDSTVHGFLVQLPLDSENSINTEEVINAIAPEKDVDGLTSINAGKLARGDLNDCFIPCTPKGCLELIKETGVPIAGRHAVVVGRSKIVGAPMHDLLLWNNATVTTCHSKTAHLDEEVNKGDILVVATGQPEMVKGEWIKPGAIVIDCGINYVPDDKKPNGRKVVGDVAYDEAKERASFITPVPGGVGPMTVAMLMQSTVESAKRFLEKFKPGKWMIQYNNLNLKTPVPSDIDISRSCKPKPIGKLAREIGLLSEEVELYGETKAKVLLSALERLKHRPDGKYVVVTGITPTPLGEGKSTTTIGLVQALGAHLYQNVFACVRQPSQGPTFGIKGGAAGGGYSQVIPMEEFNLHLTGDIHAITAANNLVAAAIDARIFHELTQTDKALFNRLVPSVNGVRRFSDIQIRRLKRLGIEKTDPTTLTDEEINRFARLDIDPETITWQRVLDTNDRFLRKITIGQAPTEKGHTRTAQFDISVASEIMAVLALTTSLEDMRERLGKMVVASSKKGEPVSAEDLGVSGALTVLMKDAIKPNLMQTLEGTPVFVHAGPFANIAHGNSSIIADRIALKLVGPEGFVVTEAGFGADIGMEKFFNIKCRYSGLCPHVVVLVATVRALKMHGGGPTVTAGLPLPKAYIQENLELVEKGFSNLKKQIENARMFGIPVVVAVNAFKTDTESELDLISRLSREHGAFDAVKCTHWAEGGKGALALAQAVQRAAQAPSSFQLLYDLKLPVEDKIRIIAQKIYGADDIELLPEAQHKAEVYTKQGFGNLPICMAKTHLSLSHNPEQKGVPTGFILPIRDIRASVGAGFLYPLVGTMSTMPGLPTRPCFYDIDLDPETEQVNGLF
B6: AAAT_HUMAN (protein, UniProt Q15758 1-541, looked up)
Neutral amino acid …: MVADPPRDSKGLAAAEPTANGGLALASIEDQGAAAGGYCGSRDQVRRCLRANLLVLLTVVAVVAGVALGLGVSGAGGALALGPERLSAFVFPGELLLRLLRMIILPLVVCSLIGGAASLDPGALGRLGAWALLFFLVTTLLASALGVGLALALQPGAASAAINASVGAAGSAENAPSKEVLDSFLDLARNIFPSNLVSAAFRSYSTTYEERNITGTRVKVPVGQEVEGMNILGLVVFAIVFGVALRKLGPEGELLIRFFNSFNEATMVLVSWIMWYAPVGIMFLVAGKIVEMEDVGLLFARLGKYILCCLLGHAIHGLLVLPLIYFLFTRKNPYRFLWGIVTPLATAFGTSSSSATLPLMMKCVEENNGVAKHISRFILPIGATVNMDGAALFQCVAAVFIAQLSQQSLDFVKIITILVTATASSVGAAGIPAGGVLTLAIILEAVNLPVDHISLILAVDWLVDRSCTVLNVEGDALGAGLLQNYVDRTESRSTEPELIQVKSELPLDPLPVPTEEGNPLLKHYRGPAGDATVASEKESVM
B7: SMC1A_HUMAN (protein, UniProt Q14683 1-1233, looked up)
Structural maintenance of …: MGFLKLIEIENFKSYKGRQIIGPFQRFTAIIGPNGSGKSNLMDAISFVLGEKTSNLRVKTLRDLIHGAPVGKPAANRAFVSMVYSEEGAEDRTFARVIVGGSSEYKINNKVVQLHEYSEELEKLGILIKARNFLVFQGAVESIAMKNPKERTALFEEISRSGELAQEYDKRKKEMVKAEEDTQFNYHRKKNIAAERKEAKQEKEEADRYQRLKDEVVRAQVQLQLFKLYHNEVEIEKLNKELASKNKEIEKDKKRMDKVEDELKEKKKELGKMMREQQQIEKEIKEKDSELNQKRPQYIKAKENTSHKIKKLEAAKKSLQNAQKHYKKRKGDMDELEKEMLSVEKARQEFEERMEEESQSQGRDLTLEENQVKKYHRLKEEASKRAATLAQELEKFNRDQKADQDRLDLEERKKVETEAKIKQKLREIEENQKRIEKLEEYITTSKQSLEEQKKLEGELTEEVEMAKRRIDEINKELNQVMEQLGDARIDRQESSRQQRKAEIMESIKRLYPGSVYGRLIDLCQPTQKKYQIAVTKVLGKNMDAIIVDSEKTGRDCIQYIKEQRGEPETFLPLDYLEVKPTDEKLRELKGAKLVIDVIRYEPPHIKKALQYACGNALVCDNVEDARRIAFGGHQRHKTVALDGTLFQKSGVISGGASDLKAKARRWDEKAVDKLKEKKERLTEELKEQMKAKRKEAELRQVQSQAHGLQMRLKYSQSDLEQTKTRHLALNLQEKSKLESELANFGPRINDIKRIIQSREREMKDLKEKMNQVEDEVFEEFCREIGVRNIREFEEEKVKRQNEIAKKRLEFENQKTRLGIQLDFEKNQLKEDQDKVHMWEQTVKKDENEIEKLKKEEQRHMKIIDETMAQLQDLKNQHLAKKSEVNDKNHEMEEIRKKLGGANKEMTHLQKEVTAIETKLEQKRSDRHNLLQACKMQDIKLPLSKGTMDDISQEEGSSQGEDSVSGSQRISSIYAREALIEIDYGDLCEDLKDAQAEEEIKQEMNTLQQKLNEQQSVLQRIAAPNMKAMEKLESVRDKFQETSDEFEAARKRAKKAKQAFEQIKKERFDRFNACFESVATNIDEIYKALSRNSSAQAFLGPENPEEPYLDGINYNCVAPGKRFRPMDNLSGGEKTVAALALLFAIHSYKPAPFFVLDEIDAALDNTNIGKVANYIKEQSTCNFQAIVISLKEEFYTKAESLIGVYPEQGDCVISKVLTFDLTKYPDANPNPNEQ
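Note: lysates from HEK293T cells pretreated with a KDM4 inhibitor to raise proteome methylation, affinity-purified after ±UV, gel-resolved, trypsin-digested, with exclusive unique peptides per protein averaged per condition.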

What follows are molecules tested on KDM4A-I71AzF (assay: CASI: photo-crosslinking with HEK293T cell extracts, StrepTactin enrichment and LC-MS/MS proteomics). Settings: sheet "Final results but with 0.01".
Type: binding, human
For B1, the “Fold change (+UV/-UV)” value was 4.
In the case of B2, the “Fold change (+UV/-UV)” value is reported as 1.
With B3 the “Fold change (+UV/-UV)” value was 1.091.
For B4, the “Fold change (+UV/-UV)” value was 2.143.
B5 was tested, and the “Fold change (+UV/-UV)” value was 0.9444.
With B6 the “Fold change (+UV/-UV)” value was 0.25.
B7 was tested, and the “Fold change (+UV/-UV)” value was 0.4286.
